The series deals with the molecule itself. As to the kind of experiment: in vitro translation, gel mobility-shift with 32P APF-1 probe; inferred from heterodimer bands and absence of monomer complexes. Here is the method:
Since amino acids in the ligand binding domain of the estrogen receptor are known to be necessary for receptor dimerization and subsequent DNA binding (Kumar & Chambon, 1988; Fawell et al., 1990), we determined whether HNF-4 binds to its recognition site as a monomer or as a dimer. The full length cDNA (Xho I) was co-translated in vitro with either of the two truncated products that bind DNA (PflM I and Hga I) and the products were tested in the mobility-shift assay. When the full length and truncated transcripts were translated together, complexes of intermediate mobility were produced with both the APF-1 probe (lanes 3 and 5, FIG. 5D) and the −151 to −130 TTR probe (not shown).

B1: HNF-4 (hepatocyte nuclear factor 4), full length protein translated in vitro from pf7 cDNA (Xho I-cut template) (receptor)
chain: MDMADYSAALDPAYTTLEFENVQVLTMGNDTSPSEGANLNSSNSLGVSALCAICGDRATGKHYGASSCDGCKGFFRRSVRKNHMYSCRFSRQCVVDKDKRNQCRYCRLKKCFRAGMKKEAVQNERDRISTRRSSYEDISLPSINALLQAEVLSQQITSPISGINGDIRAKRIASITDVCESMKEQLLVLVEWAKYIPAFCELLLDDQVALLRAHAGEHLLLGATKRSMVFKDVLLLGNDYIVPRHCPELAEMSRVSIRILDELVLPFQELQIDDNEYACLKAIIFFDPDAKGLSDPGKIKRLRSQVQVSLEDYINDRQYDSRGRFGELLLLLPTLQSITWQMIEQIQFIKLFGMAKIDNLLQEMLLGGSASDAPHAHHPLHPHLMQEHMGTNVIVANTMPSHLTNGQMSTPETPQPSPPSGSGSESYKLLPGAITTIVKPPSAIPQPTITKQEAI
notes: Translated in rabbit reticulocyte lysate from T3/T7 transcripts of pf7 (rat liver cDNA); also called full length cDNA (Xho I); in vitro synthesized HNF-4
Consider B1, for which the binding result is “binds”.

For the origin of these results see patent US7368293 (ROCKEFELLER UNIVERSITY, dated 2008).
